Laboratory results: US20230094463A1, “ANTIBODIES THAT DISRUPT THE INTERACTION OF GAL3 AND INSULIN RECEPTOR OR INTEGRINS AND METHODS OF USE THEREOF” (TrueBinding, Inc., priority 2019, published 2023)
Substitutions are numbered along the chain they refer to. In names and notes the source's numbering stands.

B1: F847C.10B9: anti-Gal3 antibody (antibody, V domains shown)
VH: QIQLVQSGPEVKKPGETVKISCKASGYIFTNYGMNWVKQAPGKGLKWMGWINTYTGEPTYTDDFKGRFAFSLETSASTAYLQINNLKNEDTATYFCAKFGNYVGAMDYWGQGTSVTVSS
VL: DIRMTQSPSSLSASLGDTITITCHASQNINVWLSWYQQKPGNIPKLLIYKASNLHTGVPSRFSGSGSGTGFTLTISSLQPEDIATYYCQQGQSYPYTFGGGTKLELK
B2: F847C.26F5: anti-Gal3 antibody (antibody, V domains shown)
VH: B1 VH
VL: B1 VL with D1E, R3K, T5N
B3: F847C.12F12: anti-Gal3 antibody (antibody, V domains shown)
VH: B1 VH with V11L, I28T, T61V, Q82R
VL: B1 VL with R3Q, M4V, T5I
B4: 19B5.2E6: anti-Gal3 monoclonal antibody (antibody, V domains shown)
VH: QIQLVQSGPELKKPGETVKISCKASGYTFTTYAMSWVKQAPGKGLKWMGWINTYSGVPTYADDLKGRFAFSLETSASTAYLQINNLKNEDTATYFCARGPYAMDYWGQGTSVTVSS
VL: DIQMTQTTSSLSASLGDRVTISCSASQGINNYLNWYQQKPDGTVKLLIYYASSLHSGVPSRFSGSGSGTDYSLTISNLEPEDIATYYCQQYSQVPYTFGSGTKLEIK
B5: F846C.1B2: anti-Gal3 antibody (antibody, V domains shown)
VH: QIQLVQSGPELKKPGETVKISCKASGYTFTNYGMNWVKQAPGKGLKWMGWINTYTGEPSYADDFKGRFAFSLETSASTAYLQINNLKNEDMATYFCARWGGYAGDYYAMDFWGQGTSVTVSS
VL: NIWLTQSPSSLAVSAGEMVTMTCKSSQSVLYSSNQKNYLAWYQQKPGQSPKLLIYWASTRESGVPDRFTGSGSGTDFSLTISSVQAEDLAVYYCHQYLSSLTFGAGTKLELK
B6: F846C.2H3: anti-Gal3 antibody (antibody, V domains shown)
VH: B5 VH with A103D, F111Y
VL: B5 VL with W3M, L4M, M18K, T22S, S78T, A86P
B7: 15F10.2D6: anti-Gal3 monoclonal antibody (antibody, V domains shown)
VH: EVQLVESGGGLVKPGGSLKLSCAASGFAFSSYAMSWVRQTPEKRLEWVATISDGGVYTYYTDHVKGRFTISRDNAEDNLYLQMSHLKSEDTAMYYCVRDGGYWGQGTTLTVSS
VL: DVLMTQTPLSLPVSLGDQASISCRSSQSIVHNNGNTYLEWYLQKPGQSPKLLIYKVSNRFSGVPDRFSGSGSGTDFTLKISRVEAEDLGVYYCFQGSHVPLTFGGGTKLELK
B8: 13A12.2E5: anti-Gal3 monoclonal antibody (antibody, V domains shown)
VH: QIQLVQSGPELKKPGETVKISCKTSGYKFKTYVMSWVKQAPGKALKWMGWINTYSGVPTYADDFKGRFAFSLETSASTAYLEIINLKNEDTATYFCARDGNYGDPMDYWGQGTSVTVSS
VL: DVVMTQTPLTLSVAIGQPASISCKSSQSLLYTNGKTYLNWLLQRPGQSPKRLIYLLSKLDSGVPDRFSASGSGTDFTLKISRVEAEDLGVYYCLQSTHFPLTFGAGTKLEMK
B9: TB006: anti-Gal3 antibody (antibody, V domains shown)
VH: QVQLVQSGAEVKKPGASVKVSCKASGYSFTNYYMHWVRQAPGQRLEWMGWIYPGSGNTNYNEKFQGRVTITADTSASTAYMELSSLRSEDTAVYYCSTAPGGFDVWGQGTTVTVSS
VL: DIVMTQTPLSLSVTPGQPASISCKSSKSLLHSDGITYLYWYLQKPGQSPQLLIYRMSNLASGVPDRFSGSGSGTDFTLKISRVEAEDVGVYYCAQMLEFPLTFGQGTKLEIK
B10: 20D11.2C6: anti-Gal3 monoclonal antibody (antibody, V domains shown)
VH: EVQLQQSGPELVKPGASVKISCKASGYTFTDFYINWVKQSHGKSLEWIGDINPKNGGINYNPKFKIKATLTVDKSSSTSYMDLRGLTSEDSAVYYCTSGYGFPYWGQGTLVTVSA
VL: DIQMNQSPSSLSASLGDTITITCRASQNIYIWLSWYQQKPGNIPKLLIYKASNLHTGVPSRFSGSGSGTDFTLTISTLQPEDIATYFCLQGQSYPLTFGAGTKLEMK
B11: F846C.1H5: anti-Gal3 antibody (antibody, V domains shown)
VH: EVQLLESGGGLVKPGGSLKLSCAASGFTFSSYAMSWVRQTPEKRLEWVASISSGGDTYYPDSVKGRFTISRDNARNILYLQMSSLRSEDTAMYYCASYGNSLFDYWGQGTTLTVSS
VL: DVVMTQTPLSLPVSLGDQASISCRSSQSLVHNSGNTYLHWYLQRPGQSPNLLIYKVSNRFSGVPDRFSGSGSGTDFTLKISRVAAEDLGVYFCSQSTHVPPTFGGGTKLEIK

Columns and labels:
[1] = biological target: T1, Gal3 peptides (SEQ ID NOs: 3-26) (Homo sapiens, UniProt P17931); test: Gal3 peptide library binding ELISA (epitope mapping); settings: for binding to Gal3 Peptide 1: Peptide 1 (SEQ ID NO: 3), amino acids 1-20 of Gal3; for binding to Gal3 Peptide 7: Peptide 7 (SEQ ID NO: 9), amino acids 61-80 of Gal3; for binding to Gal3 Peptide 6: Peptide 6 (SEQ ID NO: 8); for binding to Gal3 Peptide 4: Peptide 4 (SEQ ID NO: 6), amino acids 31-50 of Gal3
T1 construct: a library of 24 amino acid peptides representing portions of Gal3; purchased LifeTein custom order
Procedure: To identify the epitopes to which Gal3 antibodies with and without Gal3-INSR blocking activity bound, a library of 24 amino acid peptides representing portions of Gal3, depicted in FIG. 27, was produced and the ability of each peptide to bind Gal3 antibodies was evaluated by ELISA. At least 2 μg/ml of hGal3 peptide in 50 μl of PBS or 0.1 μg/ml of full-length human Gal3 protein (GenScript) and human Galectin-3 protein (Acro Biosystems, GA3-H5129) were diluted in PBS (Corning, 21-030-CM) to concentrations of at least 2 μg/ml or 0.1 μg/ml, respectively, and added to the wells of a 96-well ELISA plate (Thermo Fisher, 44-2404-21). After incubating the plate at 4° C. overnight, the plate was washed three times with PBST (PBS with 0.05% Tween 20 [VWR, 0777]). The plate was then blocked for an hour with 2% BSA (EMD Millipore, 126609) in PBST at room temperature with gentle rocking. Thereafter, the 2% BSA in PBST was discarded and human Galectin-3 hybridoma supernatants or antibodies were diluted in 2% BSA in PBST to concentrations of at least 0.1 μg/ml and added to the wells. The plate was incubated for an hour at room temperature with gentle rocking and then washed three times with PBST. Afterwards, Goat Anti-Mouse IgG-HRP (Jackson ImmunoResearch, 115-036-1461) or Goat Anti-Rat IgG HRP (Abcam, ab205720) diluted in 2% BSA in PBST (1:4000) were added to the wells. The plate was incubated for 30 minutes to 1 hour at room temperature with gentle rocking and then washed three times with PBST. TMB substrate (Thermo Scientific, 34029) was then added to each well. The reaction was stopped with 1M HCl (JT Baker, 5620-02) and read using a plate reader (Molecular Devices) at absorbance of 450 nm.
Human Gal3 peptides (LifeTein, custom order) and human Gal3 proteins (R&D Systems, 8259-GA; TrueBinding, QCB200349) were diluted in PBS (Corning, 21-030-CM) to concentrations of at least 100 μg/mL (peptides) or 1 μg/mL (proteins), and added to the wells of several 96-well ELISA plates (Thermo Fisher, 44-2404-21). After incubating the plates at 4° C. overnight, the plates were washed three times with PBST (PBS with 0.05% Tween 20 [VWR, 0777]). The plates were then blocked for an hour with 2% BSA (EMD Millipore, 126609) in PBST at room temperature with gentle rocking. Thereafter, the 2% BSA in PBST was discarded and Gal3-binding antibodies (reformatted hIgG4 [S228P]) were diluted in 2% BSA in PBST to concentrations of 5 μg/mL and added to the wells. The plates were incubated for an hour at room temperature with gentle rocking and then washed three times with PBST. Afterwards, Peroxidase AffiniPure F(ab′)2 Fragment Goat Anti-Human IgG (H+L) polyclonal antibody (Jackson ImmunoResearch, 109-036-003), was diluted in 2% BSA in PBST (1:4000) and added to the wells. The plates were incubated for 1 hour at room temperature with gentle rocking and then washed three times with PBST. TMB substrate (Thermo Scientific, 34029) was then added to each well. The reaction was stopped with 1M HCl (JT Baker, 5620-02) and read using a plate reader (Molecular Devices) at absorbance of 450 nm.

[2] = biological target: T2, human Gal3 (Homo sapiens, UniProt P17931); test: Antibody binning assays (competition for binding to Gal3); settings: binning per Examples 3 and 18
T2 construct: His; purchased AcroBio GA3-H5129
Procedure: To determine whether Gal3-binding antibodies with Gal3-INSR blocking activity bind to the same or overlapping regions of the Gal3 molecule, antibody binning assays were performed to assess the ability of antibodies to simultaneously bind Gal3. Amine-reactive probes were loaded onto a Gator biosensor (Probe Life, Palo Alto, Calif.), equilibrated in dH20 for 60 seconds, dipped into 100 μl EDC 0.2M/NHS 0.05M activation buffer for 30 seconds, then dipped into a solution of […] human Gal3-His in 10 mM NaOAc buffer, pH 5 until binding was saturated, and quenched in 1 M ethanolamine pH 8.5 for 300 seconds. Following Gal3-His loading, tips were dipped in 20 μg/mL saturating antibody, then successively dipped into 5 μg/mL competing antibody.
The epitope binning assay was done in a sandwich format on the high-throughput SPR-based Carterra LSA unit (CarterraBio, Salt Lake City, Utah). First, the purified antibodies were diluted to 10 μg/ml concentration in 10 mM NaOAc (pH 5.0) and then were covalently coupled via amine group to HC200M chip activated by EDC and S-NHS to immobilize antibodies to different positions of a 384-spot array. One hundred thirty-eight binning cycles were run on the array of immobilized antibodies. In each cycle, first, human Gal3 (AcroBio GA3-H5129) was injected over the entire array to bind to different antibodies (primary antibody), followed by one antibody (secondary antibody) selected among the panel of 150 anti-GAL3 antibodies tested. At the end of each cycle, the array was regenerated by 10 mM Glycine (pH 2.0) to remove bound antigen and secondary antibody from the array. The data analysis was done using the Epitope software by CarterraBio.

T2 sequence (P17931 whole entry): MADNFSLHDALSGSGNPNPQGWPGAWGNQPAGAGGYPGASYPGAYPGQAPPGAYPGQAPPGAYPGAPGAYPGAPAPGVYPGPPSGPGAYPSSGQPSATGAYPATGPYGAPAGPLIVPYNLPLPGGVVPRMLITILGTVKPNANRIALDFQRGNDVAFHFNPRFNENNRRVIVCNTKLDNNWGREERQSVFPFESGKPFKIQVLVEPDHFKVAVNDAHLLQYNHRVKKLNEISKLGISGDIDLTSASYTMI

| Molecule | binding to Gal3 Peptide 1 [1] | binding to Gal3 Peptide 7 [1] | binding to Gal3 Peptide 6 ([1]; amino acids 51-70 of Gal3) | further results |
| --- | --- | --- | --- | --- |
| B1 | bind and bound | bind and bound |  |  |
| B2 | bind and bound | bind and bound |  |  |
| B3 | bind and bound | bind and bound |  |  |
| B4 | bind and bound | bind and bound |  | epitope bin (competitive binding to Gal3) [2]: bin 3 |
| B5 |  | bind and bound | bind and bound | binding to Gal3 Peptide 5 ([1]; Peptide 5 (SEQ ID NO: 7)): bind |
| B6 |  |  | bind and bound |  |
| B7 |  | bind and bound |  | binding to Gal3 Peptide 2 ([1]; Peptide 2 (SEQ ID NO: 4)): bind; binding to Gal3 Peptide 3 ([1]; Peptide 3 (SEQ ID NO: 5)): bind; binding to Gal3 Peptide 4 [1]: bind; epitope bin (competitive binding to Gal3) [2]: bin 8 |
| B8 |  |  | bind and bound | binding to Gal3 Peptide 4 [1]: bind |
| B9 |  |  |  | binding to Gal3 Peptide 6 ([1]; amino acids 51-70 of Gal3, listed as IMT006 (TB006)): bind and bound |
| B10 | bind and bound | bind and bound | bound | epitope bin (competitive binding to Gal3) [2]: bins 5 |
| B11 | bind and bound |  |  |  |
